Numbered stars: 1 amine (or outer) side, 2 acyl side, 3 side chain; on linkers, the order of the positions; unused ones are H or OH. Bridge positions count the residues as written; N and C are the ends. Side chains are listed from the residue outwards. Ends that are not written are not given here. * marks the point of attachment. C20 diacid = O=C(O)CCCCCCCCCCCCCCCCCCC(=O)*; γGlu = O=C(O)[C@H](CCC(=O)[*:2])N[*:1]
T1: human amylin 3(a) receptor (human calcitonin receptor co-expressed with RAMP-3) (human, UniProt P30988 25-474; O60896 24-148, limits assumed)
T1 sequence (looked up) 1: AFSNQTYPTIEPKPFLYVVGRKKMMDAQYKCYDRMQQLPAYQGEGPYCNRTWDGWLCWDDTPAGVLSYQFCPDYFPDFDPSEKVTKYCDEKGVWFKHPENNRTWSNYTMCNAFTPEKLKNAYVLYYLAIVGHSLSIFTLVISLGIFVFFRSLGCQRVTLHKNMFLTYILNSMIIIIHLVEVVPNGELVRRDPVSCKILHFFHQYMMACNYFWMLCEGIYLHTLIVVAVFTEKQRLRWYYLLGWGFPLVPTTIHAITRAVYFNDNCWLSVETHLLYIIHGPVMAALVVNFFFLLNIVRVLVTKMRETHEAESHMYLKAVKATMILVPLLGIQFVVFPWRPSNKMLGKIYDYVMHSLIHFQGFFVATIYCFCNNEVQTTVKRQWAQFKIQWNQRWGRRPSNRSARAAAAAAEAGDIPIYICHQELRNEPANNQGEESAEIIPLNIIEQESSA
T1 sequence (looked up) 2: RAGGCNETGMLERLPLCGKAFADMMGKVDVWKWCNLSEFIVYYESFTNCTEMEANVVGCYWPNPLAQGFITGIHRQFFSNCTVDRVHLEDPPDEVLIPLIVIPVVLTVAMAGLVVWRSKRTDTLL

B1: N^ε1-[(4S)-4-carboxy-4-(19-carboxynonadecanoylamino)butanoyl]-[Arg17,Pro21,Pro27,His34]-h-amylin (peptide)
peptide: K([γGlu-C20 diacid])CNTATCATQRLANFLRHSSPNFGAIPSSTNVGHNTY-NH2
modifications: disulfide 2-7; N-terminus assumed
SMILES: CC[C@H](C)[C@H](NC(=O)[C@H](C)NC(=O)CNC(=O)[C@H](Cc1ccccc1)NC(=O)[C@H](CC(N)=O)NC(=O)[C@@H]1CCCN1C(=O)[C@H](CO)NC(=O)[C@H](CO)NC(=O)[C@H](Cc1c[nH]cn1)NC(=O)[C@H](CCCNC(=N)N)NC(=O)[C@H](CC(C)C)NC(=O)[C@H](Cc1ccccc1)NC(=O)[C@H](CC(N)=O)NC(=O)[C@H](C)NC(=O)[C@H](CC(C)C)NC(=O)[C@H](CCCNC(=N)N)NC(=O)[C@H](CCC(N)=O)NC(=O)[C@@H](NC(=O)[C@H](C)NC(=O)[C@@H]1CSSC[C@H](NC(=O)[C@@H](N)CCCCNC(=O)CC[C@H](NC(=O)CCCCCCCCCCCCCCCCCCC(=O)O)C(=O)O)C(=O)N[C@@H](CC(N)=O)C(=O)N[C@@H]([C@@H](C)O)C(=O)N[C@@H](C)C(=O)N[C@@H]([C@@H](C)O)C(=O)N1)[C@@H](C)O)C(=O)N1CCC[C@H]1C(=O)N[C@@H](CO)C(=O)N[C@@H](CO)C(=O)N[C@H](C(=O)N[C@@H](CC(N)=O)C(=O)N[C@H](C(=O)NCC(=O)N[C@@H](Cc1c[nH]cn1)C(=O)N[C@@H](CC(N)=O)C(=O)N[C@H](C(=O)N[C@@H](Cc1ccc(O)cc1)C(N)=O)[C@@H](C)O)C(C)C)[C@@H](C)O
notes: also called compound 77
B2: N^ε1-[(4S)-4-carboxy-4-(19-carboxynonadecanoylamino)butanoyl]-[Arg17,Pro21,Pro27,Lys35]-h-amylin (peptide)
peptide: K([γGlu-C20 diacid])CNTATCATQRLANFLRHSSPNFGAIPSSTNVGSKTY-NH2
modifications: disulfide 2-7; N-terminus assumed
SMILES: CC[C@H](C)[C@H](NC(=O)[C@H](C)NC(=O)CNC(=O)[C@H](Cc1ccccc1)NC(=O)[C@H](CC(N)=O)NC(=O)[C@@H]1CCCN1C(=O)[C@H](CO)NC(=O)[C@H](CO)NC(=O)[C@H](Cc1c[nH]cn1)NC(=O)[C@H](CCCNC(=N)N)NC(=O)[C@H](CC(C)C)NC(=O)[C@H](Cc1ccccc1)NC(=O)[C@H](CC(N)=O)NC(=O)[C@H](C)NC(=O)[C@H](CC(C)C)NC(=O)[C@H](CCCNC(=N)N)NC(=O)[C@H](CCC(N)=O)NC(=O)[C@@H](NC(=O)[C@H](C)NC(=O)[C@@H]1CSSC[C@H](NC(=O)[C@@H](N)CCCCNC(=O)CC[C@H](NC(=O)CCCCCCCCCCCCCCCCCCC(=O)O)C(=O)O)C(=O)N[C@@H](CC(N)=O)C(=O)N[C@@H]([C@@H](C)O)C(=O)N[C@@H](C)C(=O)N[C@@H]([C@@H](C)O)C(=O)N1)[C@@H](C)O)C(=O)N1CCC[C@H]1C(=O)N[C@@H](CO)C(=O)N[C@@H](CO)C(=O)N[C@H](C(=O)N[C@@H](CC(N)=O)C(=O)N[C@H](C(=O)NCC(=O)N[C@@H](CO)C(=O)N[C@@H](CCCCN)C(=O)N[C@H](C(=O)N[C@@H](Cc1ccc(O)cc1)C(N)=O)[C@@H](C)O)C(C)C)[C@@H](C)O
notes: also called compound 35
B3: N^ε1-[(4S)-4-carboxy-4-(19-carboxynonadecanoylamino)butanoyl]-[His14,Arg17,Pro21,Pro27,Arg34]-h-amylin (peptide)
peptide: K([γGlu-C20 diacid])CNTATCATQRLAHFLRHSSPNFGAIPSSTNVGRNTY-NH2
modifications: disulfide 2-7; N-terminus assumed
SMILES: CC[C@H](C)[C@H](NC(=O)[C@H](C)NC(=O)CNC(=O)[C@H](Cc1ccccc1)NC(=O)[C@H](CC(N)=O)NC(=O)[C@@H]1CCCN1C(=O)[C@H](CO)NC(=O)[C@H](CO)NC(=O)[C@H](Cc1c[nH]cn1)NC(=O)[C@H](CCCNC(=N)N)NC(=O)[C@H](CC(C)C)NC(=O)[C@H](Cc1ccccc1)NC(=O)[C@H](Cc1c[nH]cn1)NC(=O)[C@H](C)NC(=O)[C@H](CC(C)C)NC(=O)[C@H](CCCNC(=N)N)NC(=O)[C@H](CCC(N)=O)NC(=O)[C@@H](NC(=O)[C@H](C)NC(=O)[C@@H]1CSSC[C@H](NC(=O)[C@@H](N)CCCCNC(=O)CC[C@H](NC(=O)CCCCCCCCCCCCCCCCCCC(=O)O)C(=O)O)C(=O)N[C@@H](CC(N)=O)C(=O)N[C@@H]([C@@H](C)O)C(=O)N[C@@H](C)C(=O)N[C@@H]([C@@H](C)O)C(=O)N1)[C@@H](C)O)C(=O)N1CCC[C@H]1C(=O)N[C@@H](CO)C(=O)N[C@@H](CO)C(=O)N[C@H](C(=O)N[C@@H](CC(N)=O)C(=O)N[C@H](C(=O)NCC(=O)N[C@@H](CCCNC(=N)N)C(=O)N[C@@H](CC(N)=O)C(=O)N[C@H](C(=O)N[C@@H](Cc1ccc(O)cc1)C(N)=O)[C@@H](C)O)C(C)C)[C@@H](C)O
notes: also called compound 85
B4: N^ε1-[(4S)-4-carboxy-4-(19-carboxynonadecanoylamino)butanoyl]-[His14,Arg17,Pro21,Pro27]-h-amylin (peptide)
peptide: K([γGlu-C20 diacid])CNTATCATQRLAHFLRHSSPNFGAIPSSTNVGSNTY-NH2
modifications: disulfide 2-7; N-terminus assumed
SMILES: CC[C@H](C)[C@H](NC(=O)[C@H](C)NC(=O)CNC(=O)[C@H](Cc1ccccc1)NC(=O)[C@H](CC(N)=O)NC(=O)[C@@H]1CCCN1C(=O)[C@H](CO)NC(=O)[C@H](CO)NC(=O)[C@H](Cc1c[nH]cn1)NC(=O)[C@H](CCCNC(=N)N)NC(=O)[C@H](CC(C)C)NC(=O)[C@H](Cc1ccccc1)NC(=O)[C@H](Cc1c[nH]cn1)NC(=O)[C@H](C)NC(=O)[C@H](CC(C)C)NC(=O)[C@H](CCCNC(=N)N)NC(=O)[C@H](CCC(N)=O)NC(=O)[C@@H](NC(=O)[C@H](C)NC(=O)[C@@H]1CSSC[C@H](NC(=O)[C@@H](N)CCCCNC(=O)CC[C@H](NC(=O)CCCCCCCCCCCCCCCCCCC(=O)O)C(=O)O)C(=O)N[C@@H](CC(N)=O)C(=O)N[C@@H]([C@@H](C)O)C(=O)N[C@@H](C)C(=O)N[C@@H]([C@@H](C)O)C(=O)N1)[C@@H](C)O)C(=O)N1CCC[C@H]1C(=O)N[C@@H](CO)C(=O)N[C@@H](CO)C(=O)N[C@H](C(=O)N[C@@H](CC(N)=O)C(=O)N[C@H](C(=O)NCC(=O)N[C@@H](CO)C(=O)N[C@@H](CC(N)=O)C(=O)N[C@H](C(=O)N[C@@H](Cc1ccc(O)cc1)C(N)=O)[C@@H](C)O)C(C)C)[C@@H](C)O
notes: also called compound 70
B5: N^ε1-[(4S)-4-carboxy-4-(19-carboxynonadecanoylamino)butanoyl]-[His14,Arg17,Pro21,Pro27,His35]-h-amylin (peptide)
peptide: K([γGlu-C20 diacid])CNTATCATQRLAHFLRHSSPNFGAIPSSTNVGSHTY-NH2
modifications: disulfide 2-7; N-terminus assumed
SMILES: CC[C@H](C)[C@H](NC(=O)[C@H](C)NC(=O)CNC(=O)[C@H](Cc1ccccc1)NC(=O)[C@H](CC(N)=O)NC(=O)[C@@H]1CCCN1C(=O)[C@H](CO)NC(=O)[C@H](CO)NC(=O)[C@H](Cc1c[nH]cn1)NC(=O)[C@H](CCCNC(=N)N)NC(=O)[C@H](CC(C)C)NC(=O)[C@H](Cc1ccccc1)NC(=O)[C@H](Cc1c[nH]cn1)NC(=O)[C@H](C)NC(=O)[C@H](CC(C)C)NC(=O)[C@H](CCCNC(=N)N)NC(=O)[C@H](CCC(N)=O)NC(=O)[C@@H](NC(=O)[C@H](C)NC(=O)[C@@H]1CSSC[C@H](NC(=O)[C@@H](N)CCCCNC(=O)CC[C@H](NC(=O)CCCCCCCCCCCCCCCCCCC(=O)O)C(=O)O)C(=O)N[C@@H](CC(N)=O)C(=O)N[C@@H]([C@@H](C)O)C(=O)N[C@@H](C)C(=O)N[C@@H]([C@@H](C)O)C(=O)N1)[C@@H](C)O)C(=O)N1CCC[C@H]1C(=O)N[C@@H](CO)C(=O)N[C@@H](CO)C(=O)N[C@H](C(=O)N[C@@H](CC(N)=O)C(=O)N[C@H](C(=O)NCC(=O)N[C@@H](CO)C(=O)N[C@@H](Cc1c[nH]cn1)C(=O)N[C@H](C(=O)N[C@@H](Cc1ccc(O)cc1)C(N)=O)[C@@H](C)O)C(C)C)[C@@H](C)O
notes: also called compound 66
B6: N^ε1-[(4S)-4-carboxy-4-(19-carboxynonadecanoylamino)butanoyl]-[Arg17,Pro21,Pro27,His35]-h-amylin (peptide)
peptide: K([γGlu-C20 diacid])CNTATCATQRLANFLRHSSPNFGAIPSSTNVGSHTY-NH2
modifications: disulfide 2-7; N-terminus assumed
SMILES: CC[C@H](C)[C@H](NC(=O)[C@H](C)NC(=O)CNC(=O)[C@H](Cc1ccccc1)NC(=O)[C@H](CC(N)=O)NC(=O)[C@@H]1CCCN1C(=O)[C@H](CO)NC(=O)[C@H](CO)NC(=O)[C@H](Cc1c[nH]cn1)NC(=O)[C@H](CCCNC(=N)N)NC(=O)[C@H](CC(C)C)NC(=O)[C@H](Cc1ccccc1)NC(=O)[C@H](CC(N)=O)NC(=O)[C@H](C)NC(=O)[C@H](CC(C)C)NC(=O)[C@H](CCCNC(=N)N)NC(=O)[C@H](CCC(N)=O)NC(=O)[C@@H](NC(=O)[C@H](C)NC(=O)[C@@H]1CSSC[C@H](NC(=O)[C@@H](N)CCCCNC(=O)CC[C@H](NC(=O)CCCCCCCCCCCCCCCCCCC(=O)O)C(=O)O)C(=O)N[C@@H](CC(N)=O)C(=O)N[C@@H]([C@@H](C)O)C(=O)N[C@@H](C)C(=O)N[C@@H]([C@@H](C)O)C(=O)N1)[C@@H](C)O)C(=O)N1CCC[C@H]1C(=O)N[C@@H](CO)C(=O)N[C@@H](CO)C(=O)N[C@H](C(=O)N[C@@H](CC(N)=O)C(=O)N[C@H](C(=O)NCC(=O)N[C@@H](CO)C(=O)N[C@@H](Cc1c[nH]cn1)C(=O)N[C@H](C(=O)N[C@@H](Cc1ccc(O)cc1)C(N)=O)[C@@H](C)O)C(C)C)[C@@H](C)O
notes: also called compound 60

These binders were tested against T1, human amylin 3(a) receptor (human …) (assay: cell-based or functional assay).

Compared with B1, B2 is lower in “Ratio hCT/hAmylin funct. (hCTR EC50 over hAmylin-R EC50)” value: 37.3 for the first, 15 for the second.

Compared with B3, B4 is lower in “Ratio hCT/hAmylin funct. (hCTR EC50 over hAmylin-R EC50)” value: 26.6 for the first, 17.9 for the second.

Compared with B5, B6 is lower in “Ratio hCT/hAmylin funct. (hCTR EC50 over hAmylin-R EC50)” value: 20.1 for the first, 15.3 for the second.

First: B1
Second: B2
The “hAmylin-R funct. EC50 (pM)” value of the first is lower: 145 pM for the first, 364 pM for the second.

Going from B3 to B4, the “hAmylin-R funct. EC50 (pM)” value falls from 146 pM to 40 pM.

First: B5
Second: B6
The “hAmylin-R funct. EC50 (pM)” value of the first is lower: 27 pM for the first, 351 pM for the second.
